The results in this text go back to PMC10696041 (2023).

To fix the notation:
B1: MBP-CUB1CUB2 domains of PCPE-2, WT [human] / bone morphogenetic protein-1 [human] (parent complex)
chain 1: QSPERPVFTCGGILTGESGFIGSEGFPGVYPPNSKCTWKITVPEGKVVVLNFRFIDLESDNLCRYDFVDVYNGHANGQRIGRFCGTFRPGALVSSGNKMMVQMISDANTAGNGFMAMFSAAEPNERGDQYCGGLLDRPSGSFKTPNWPDRDYPAGVTCVWHIVAPKNQLIELKFEKFDVERDNYCRYDYVAVFNGGEVNDARRIGKYCGDSPPAPIVSERNELLIQFLSDLSLTADGFIGHYIFRPK
chain 2: AATSRPERVWPDGVIPFVIGGNFTGSQRAVFRQAMRHWEKHTCVTFLERTDEDSYIVFTYRPCGCCSYVGRRGGGPQAISIGKNCDKFGIVVHELGHVVGFWHEHTRPDRDRHVSIVRENIQPGQEYNFLKMEPQEVESLGETYDFDSIMHYARNTFSRGIFLDTIVPKYEVNGVKPPIGQRTRLSKGDIAQARKLYKCPACGETLQDSTGNFSSPEYPNGYSAHMHCVWRISVTPGEKIILNFTSLDLYRSRLCWYDYVEVRDGFWRKAPLRGRFCGSKLPEPIVSTDSRLWVEFRSSSNWVGKGFFAVYEAICGGDVKKDYGHIQSPNYPDDYRPSKVCIWRIQVSEGFHVGLTFQSFEIERHDSCAYDYLEVRDGHSESSTLIGRYCGYEKPDDIKSTSSRLWLKFVSDGSINKAGFAVNFFKEVDECSRPNRGGCEQRCLNTLGSYKCSCDPGYELAPDKRRCEAACGGFLTKLNGSITSPGWPKEYPPNKNCIWQLVAPTQYRISLQFDFFETEGNDVCKYDFVEVRSGLTADSKLHGKFCGSEKPEVITSQYNNMRVEFKSDNTVSKKGFKAHFFSEKRPALQPPRGRPHQLKFRVQKRNRTPQ

This experiment covers variants of B1. The experiment in a line: SPR; 50 nM MBP-CUB1CUB2; immobilized BMP-1 (1302 and 1492 RU); parent: 100; read off a plot. A general note: In SPR one partner is held on a chip, and binding of the other changes the refractive index at the surface.
In the case of chain 1 QSPERPVFTCGGILTGESGFIGSEGFPGVYPPNSKCTWKITVPEGKVVVLNFRFIDLESDNLCRYDFVDVYNGHANGQRIGRFCGTFRPGALVSSGNKMMVQMISDANTAGNGFMAMFSAAEPNERGDQYCGGLLDRPSGSFKTPNWPDADYPAGVTCVWHIVAPKNQLIELKFEKFDVERDNYCRYDYVAVFNGGEVNDARRIGKYCGDSPPAPIVSERNELLIQFLSDLSLTADGFIGHYIFRPK [chain 1 R150A], the percent of parent is ~90 % binding / WT.
In the case of chain 1 QSPERPVFTCGGILTGESGFIGSEGFPGVYPPNSKCTWKITVPEGKVVVLNFRFIDLESDNLCRYDFVDVYNGHANGQRIGRFCGTARPGALVSSGNKMMVQMISDANTAGNGFMAMFSAAEPNERGDQYCGGLLDRPSGSFKTPNWPDRDYPAGVTCVWHIVAPKNQLIELKFEKFDVERDNYCRYDYVAVFNGGEVNDARRIGKYCGDSPPAPIVSERNELLIQFLSDLSLTADGFIGHYIFRPK [chain 1 F87A] it was ~84 % binding / WT.
